For experiment [1], the target named is His-API5 3Mut (E184A/D185A/E190A) (human). Nature of the experiment: SPR; purified recombinant His-API5 and His-FGF2; who was immobilised is not given in the source. (Surface plasmon resonance follows binding to a sensor surface in real time, without labels.)
The target of experiment [2] is His-API5 (apoptosis inhibitor 5, residues 1-504, isoform 2), wild type (human). The description is as above.
Experiment [3] addresses His-FGF2, LMW FGF2 (residues 135-288, C211S/C229S) (UniProt P09038). Kind of experiment: SPR. The note with it: concentration series 0.031, 0.063, 0.13, 0.25, 0.50, 1.0, 2.0, 4.0, 8.0, 16 µM.
The next experiment has as its target GST-UAP56 (human) (UniProt Q13838). Kind of experiment: SPR; UAP56 with API5, FGF2, the API5–FGF2 complex or PBK as analyte proteins; purified recombinant proteins.
The target in experiment [4] is His-API5 (apoptosis inhibitor 5, residues 1-504, isoform 2), wild type. Nature of the experiment: SPR. The note with it: concentration series 0.13, 0.25, 0.50, 1.0, 2.0, 4.0, 8.0, 16 µM.

Sequence of GST-UAP56 (human) (Q13838 whole entry, the tested form may be a part, canonical isoform): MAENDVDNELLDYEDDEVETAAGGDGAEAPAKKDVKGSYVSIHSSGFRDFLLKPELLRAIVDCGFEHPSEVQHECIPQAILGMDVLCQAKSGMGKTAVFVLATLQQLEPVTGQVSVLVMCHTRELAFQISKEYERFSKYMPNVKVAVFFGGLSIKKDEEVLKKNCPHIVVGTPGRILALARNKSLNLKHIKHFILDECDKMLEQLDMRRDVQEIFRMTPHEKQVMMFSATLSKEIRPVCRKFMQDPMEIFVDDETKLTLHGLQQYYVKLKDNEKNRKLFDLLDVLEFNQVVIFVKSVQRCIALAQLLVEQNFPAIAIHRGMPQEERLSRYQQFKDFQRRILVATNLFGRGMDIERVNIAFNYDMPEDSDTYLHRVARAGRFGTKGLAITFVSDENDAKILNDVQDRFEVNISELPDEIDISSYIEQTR
Sequence of His-FGF2, LMW FGF2 (residues 135-288, C211S/C229S) (P09038 135-288 C211S/C229S): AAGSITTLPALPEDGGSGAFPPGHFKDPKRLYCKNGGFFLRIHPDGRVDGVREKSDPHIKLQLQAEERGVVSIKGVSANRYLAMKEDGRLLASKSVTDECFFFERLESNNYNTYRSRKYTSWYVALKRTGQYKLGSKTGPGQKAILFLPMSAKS

What is called Kd is the concentration at which binding is half-saturated. For the substance “His-FGF2, LMW FGF2 (residues 135-288, C211S/C229S) (from UniProt P09038 135-288) (natural protein)”, the Kd was 4200 nM in experiment [1] and 676 nM in experiment [2].
For “His-FGF2 Mut (C211S/C229S/R262A/T263A/K271A) (from UniProt P09038 135-288) (natural protein)” the same measures were 17300 nM and 1510 nM.
The term kon denotes the second-order rate constant of association. Read a high kon as fast association. As to “His-API5 (apoptosis inhibitor 5, residues 1-504, isoform 2), wild type E184A; D185A; E190A”, the kon in experiment [3] stood at 2260 M⁻¹ s⁻¹.
Consider “His-API5 (apoptosis inhibitor 5, residues 1-504, isoform 2), wild type (natural protein)”, for which, in the experiment with GST-UAP56 (human), the Kd turned out to be 1370 nM.
Turning to “His-FGF2, LMW FGF2 (residues 135-288, C211S/C229S) (from UniProt P09038) R262A; T263A; K271A”, in experiment [4], the kon was 1660 M⁻¹ s⁻¹.
Take “API5–FGF2 complex (His-API5 with His-LMW FGF2) (from UniProt P09038 135-288)”: the Kd with GST-UAP56 (human) turned out to be 199 nM.

The values are drawn from PMC7293033.
